Experimental data taken from patent publication WO2015037992A1 (dated 2015).

Molecular target: T1, HPeV1 VP1 (recombinant capsid protein, his-tag) (human parechovirus 1 (Harris), UniProt Q66578 543-773)
T1 sequence: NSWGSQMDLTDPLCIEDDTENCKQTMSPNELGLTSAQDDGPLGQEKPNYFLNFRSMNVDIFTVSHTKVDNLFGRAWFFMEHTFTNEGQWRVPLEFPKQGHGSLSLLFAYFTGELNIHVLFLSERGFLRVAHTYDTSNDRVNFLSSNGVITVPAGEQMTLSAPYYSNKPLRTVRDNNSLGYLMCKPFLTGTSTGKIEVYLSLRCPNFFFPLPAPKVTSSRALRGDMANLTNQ

B1: AM18 (antibody, V domains shown)
VH: QVQFMQSGAEVKKPGASVKVSCKASGDTFSNFAVHWVRQAPGQRPEWMGWVNAGDSNLKYSQRFQGRLIITRDTFASTVYLDLSSLTSKDTAVYYCAGGNFGGNSATFDYWGQGTLVTVSS
VL: EIVLTQSPGTLSLSPGERATLSCRASQSVSDNYLAWYQQKPGQAPRLLIYGASHKSTGIPDRFSGSGSGTDFTLTISRLEPEDFAVYYCQQYGGSPLTFGGGTKVEIKR
**Q.** With B1 as the binder, how does the Kd read?
**A.** Its Kd is 0.0115 nM.

**Q.** What about the koff of the same binder?
**A.** Its koff is 2.3e-06 s⁻¹.

**Q.** What about the kon of the same binder?
**A.** The kon was 208000 M⁻¹ s⁻¹.
